Data taken from PMC7002343.

System: EspM (lysate) (Mycobacterium marinum M (ATCC BAA-535))
Assay: DNA pull-down, LC-MS/MS
Details: 5' BiotinTEG on both primers; EspM EMSA: 10 mM Tris-HCl pH 8.0, 40 mM KCl, 2.5 mM DTT, 0.25% Tween-20, 0.02 mg/mL salmon sperm DNA (listed as 0.5x binding buffer), ~70 ng probe, 20-25 min …

Which binding signal (fold enrichment over rpoA bait (N5)) does the source give for whiB6 promoter bait (1 kb) here?
The binding signal (fold enrichment over rpoA bait (N5)) was over 64.
